Experimental data: patent US20140072613A1, “Compositions and Methods for Treating Cutaneous Scarring” (priority 2012, published 2014)

Experiments:
Assay in all cases: biochemical
Type in all cases: biochemical
266 human kinases [1] = biological target: T1, 266 human kinases (Homo sapiens, UniProt Q9UHD2); details: TBK1(h); 100 μM
T1 sequence (Q9UHD2 1-729): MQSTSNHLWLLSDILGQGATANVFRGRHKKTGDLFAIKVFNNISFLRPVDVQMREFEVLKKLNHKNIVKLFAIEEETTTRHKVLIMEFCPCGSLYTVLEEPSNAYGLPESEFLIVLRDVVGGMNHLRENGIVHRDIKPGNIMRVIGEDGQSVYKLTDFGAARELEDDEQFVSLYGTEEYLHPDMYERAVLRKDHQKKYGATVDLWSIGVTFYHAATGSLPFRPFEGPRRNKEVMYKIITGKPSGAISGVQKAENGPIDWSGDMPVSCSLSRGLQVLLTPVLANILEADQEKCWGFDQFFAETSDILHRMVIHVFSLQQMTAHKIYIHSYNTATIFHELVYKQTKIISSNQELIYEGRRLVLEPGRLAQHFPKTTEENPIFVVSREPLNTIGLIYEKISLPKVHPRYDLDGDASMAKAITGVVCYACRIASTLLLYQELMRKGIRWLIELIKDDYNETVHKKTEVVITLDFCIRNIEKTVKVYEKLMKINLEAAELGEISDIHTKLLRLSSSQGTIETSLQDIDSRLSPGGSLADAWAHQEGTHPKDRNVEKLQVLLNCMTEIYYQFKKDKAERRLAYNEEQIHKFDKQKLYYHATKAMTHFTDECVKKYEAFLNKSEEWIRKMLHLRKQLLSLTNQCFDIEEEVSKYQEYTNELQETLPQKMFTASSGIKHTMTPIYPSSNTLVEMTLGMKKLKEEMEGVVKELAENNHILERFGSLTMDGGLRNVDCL
In short: (§1)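 Steps: kinase transfers radiolabelled phosphate from ATP onto a positively charged substrate; the substrate is trapped on a negatively charged filter; bound radioactivity is counted by scintillation and compared with uninhibited (100%) activity.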

266 human kinases [2] = biological target: 266 human kinases (Homo sapiens, UniProt P53778); details: SAPK3(h); 100 μM
Chain of 266 human kinases (Homo sapiens, UniProt P53778) (P53778 whole entry): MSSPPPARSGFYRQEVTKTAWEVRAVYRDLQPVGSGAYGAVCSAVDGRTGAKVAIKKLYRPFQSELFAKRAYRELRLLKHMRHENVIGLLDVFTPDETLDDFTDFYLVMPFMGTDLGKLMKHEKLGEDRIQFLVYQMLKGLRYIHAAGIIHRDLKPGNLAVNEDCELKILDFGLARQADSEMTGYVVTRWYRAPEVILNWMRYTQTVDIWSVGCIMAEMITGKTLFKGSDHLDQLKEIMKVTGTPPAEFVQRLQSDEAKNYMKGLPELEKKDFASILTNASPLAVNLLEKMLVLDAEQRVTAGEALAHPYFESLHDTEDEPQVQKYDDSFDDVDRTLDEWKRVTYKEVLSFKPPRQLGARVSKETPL
In short: as §1

266 human kinases [3] = biological target: 266 human kinases (Homo sapiens, UniProt P08922); details: Ros(h); 100 μM
Chain of 266 human kinases (Homo sapiens, UniProt P08922) (P08922 28-2347): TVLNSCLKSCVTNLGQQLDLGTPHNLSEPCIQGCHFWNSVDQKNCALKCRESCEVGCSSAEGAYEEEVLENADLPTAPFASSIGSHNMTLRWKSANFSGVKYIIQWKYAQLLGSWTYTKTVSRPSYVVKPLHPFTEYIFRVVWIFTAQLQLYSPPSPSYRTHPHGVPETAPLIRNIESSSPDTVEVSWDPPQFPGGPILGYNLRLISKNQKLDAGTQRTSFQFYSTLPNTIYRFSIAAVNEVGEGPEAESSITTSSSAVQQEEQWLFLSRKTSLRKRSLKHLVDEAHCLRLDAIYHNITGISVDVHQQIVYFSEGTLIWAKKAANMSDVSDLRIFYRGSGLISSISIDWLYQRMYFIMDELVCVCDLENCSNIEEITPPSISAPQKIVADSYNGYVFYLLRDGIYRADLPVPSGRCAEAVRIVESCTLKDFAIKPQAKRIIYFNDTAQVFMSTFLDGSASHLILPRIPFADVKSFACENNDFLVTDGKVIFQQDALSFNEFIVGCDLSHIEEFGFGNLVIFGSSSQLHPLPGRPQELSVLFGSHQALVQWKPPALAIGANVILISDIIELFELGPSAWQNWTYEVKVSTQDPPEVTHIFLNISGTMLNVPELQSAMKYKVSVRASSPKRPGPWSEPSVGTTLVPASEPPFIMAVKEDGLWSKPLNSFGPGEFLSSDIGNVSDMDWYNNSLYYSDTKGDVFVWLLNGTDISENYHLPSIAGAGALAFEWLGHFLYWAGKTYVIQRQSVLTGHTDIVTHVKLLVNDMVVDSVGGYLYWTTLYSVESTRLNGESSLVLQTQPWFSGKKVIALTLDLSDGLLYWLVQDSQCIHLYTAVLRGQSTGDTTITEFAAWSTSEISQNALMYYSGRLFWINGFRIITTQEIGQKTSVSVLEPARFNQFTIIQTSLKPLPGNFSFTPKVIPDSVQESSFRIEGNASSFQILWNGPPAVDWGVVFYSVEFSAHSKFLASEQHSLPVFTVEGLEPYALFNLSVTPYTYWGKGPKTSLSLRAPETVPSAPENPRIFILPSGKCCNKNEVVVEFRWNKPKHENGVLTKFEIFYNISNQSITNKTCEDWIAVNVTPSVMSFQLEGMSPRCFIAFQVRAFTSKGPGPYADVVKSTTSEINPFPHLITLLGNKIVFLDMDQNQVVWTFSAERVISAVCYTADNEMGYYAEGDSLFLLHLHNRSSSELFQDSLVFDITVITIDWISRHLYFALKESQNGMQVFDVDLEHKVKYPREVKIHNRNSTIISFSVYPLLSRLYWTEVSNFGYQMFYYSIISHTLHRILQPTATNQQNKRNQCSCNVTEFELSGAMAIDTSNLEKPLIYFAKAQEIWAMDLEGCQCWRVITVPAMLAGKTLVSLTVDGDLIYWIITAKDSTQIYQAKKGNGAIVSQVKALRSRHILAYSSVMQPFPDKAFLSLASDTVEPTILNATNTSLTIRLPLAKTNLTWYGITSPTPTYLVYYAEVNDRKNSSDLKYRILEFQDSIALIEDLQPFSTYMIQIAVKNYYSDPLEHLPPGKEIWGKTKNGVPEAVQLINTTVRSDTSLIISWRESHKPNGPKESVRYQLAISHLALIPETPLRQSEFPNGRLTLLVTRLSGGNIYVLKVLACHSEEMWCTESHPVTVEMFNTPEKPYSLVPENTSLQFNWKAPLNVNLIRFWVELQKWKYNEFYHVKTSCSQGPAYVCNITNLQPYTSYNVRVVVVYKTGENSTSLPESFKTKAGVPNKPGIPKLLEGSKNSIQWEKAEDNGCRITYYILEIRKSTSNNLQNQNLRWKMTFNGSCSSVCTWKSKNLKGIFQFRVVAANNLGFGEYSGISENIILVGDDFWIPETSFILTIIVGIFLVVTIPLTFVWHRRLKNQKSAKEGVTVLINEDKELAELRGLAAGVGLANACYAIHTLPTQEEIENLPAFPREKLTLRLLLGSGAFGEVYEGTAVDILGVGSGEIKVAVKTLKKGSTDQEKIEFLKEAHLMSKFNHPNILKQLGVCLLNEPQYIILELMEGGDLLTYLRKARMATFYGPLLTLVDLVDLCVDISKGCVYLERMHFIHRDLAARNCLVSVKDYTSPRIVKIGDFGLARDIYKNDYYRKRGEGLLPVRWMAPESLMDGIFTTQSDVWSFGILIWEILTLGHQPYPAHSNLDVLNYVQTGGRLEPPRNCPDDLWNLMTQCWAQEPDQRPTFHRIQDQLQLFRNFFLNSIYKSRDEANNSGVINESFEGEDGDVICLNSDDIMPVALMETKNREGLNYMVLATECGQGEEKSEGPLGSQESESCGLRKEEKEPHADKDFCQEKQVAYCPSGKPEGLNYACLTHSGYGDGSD
In short: as §1

266 human kinases [4] = biological target: 266 human kinases (Homo sapiens, UniProt P17612); details: PKA(h); 100 μM
In short: as §1

266 human kinases [5] = biological target: 266 human kinases (Homo sapiens, UniProt P48730); details: CK1δ(h); 100 μM
Chain of 266 human kinases (Homo sapiens, UniProt P48730) (P48730 whole entry): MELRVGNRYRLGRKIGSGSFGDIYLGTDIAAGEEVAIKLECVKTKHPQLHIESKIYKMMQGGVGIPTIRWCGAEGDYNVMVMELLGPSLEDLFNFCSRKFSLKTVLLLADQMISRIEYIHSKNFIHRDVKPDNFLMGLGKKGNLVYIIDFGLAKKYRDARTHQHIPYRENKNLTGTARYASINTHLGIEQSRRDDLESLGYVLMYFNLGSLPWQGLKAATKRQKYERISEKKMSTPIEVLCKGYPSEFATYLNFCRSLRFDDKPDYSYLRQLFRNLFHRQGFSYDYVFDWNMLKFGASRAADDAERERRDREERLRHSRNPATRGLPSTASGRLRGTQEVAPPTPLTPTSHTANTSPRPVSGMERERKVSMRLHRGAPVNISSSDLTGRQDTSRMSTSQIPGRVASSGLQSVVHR
In short: as §1

266 human kinases [6] = biological target: 266 human kinases (Homo sapiens, UniProt P08581, D1228H); details: Met(D1246H)(h); 100 μM
In short: as §1

266 human kinases [7] = biological target: 266 human kinases (Homo sapiens, UniProt Q9UM73); details: ALK(h); 100 μM
Chain of 266 human kinases (Homo sapiens, UniProt Q9UM73) (Q9UM73 19-1620): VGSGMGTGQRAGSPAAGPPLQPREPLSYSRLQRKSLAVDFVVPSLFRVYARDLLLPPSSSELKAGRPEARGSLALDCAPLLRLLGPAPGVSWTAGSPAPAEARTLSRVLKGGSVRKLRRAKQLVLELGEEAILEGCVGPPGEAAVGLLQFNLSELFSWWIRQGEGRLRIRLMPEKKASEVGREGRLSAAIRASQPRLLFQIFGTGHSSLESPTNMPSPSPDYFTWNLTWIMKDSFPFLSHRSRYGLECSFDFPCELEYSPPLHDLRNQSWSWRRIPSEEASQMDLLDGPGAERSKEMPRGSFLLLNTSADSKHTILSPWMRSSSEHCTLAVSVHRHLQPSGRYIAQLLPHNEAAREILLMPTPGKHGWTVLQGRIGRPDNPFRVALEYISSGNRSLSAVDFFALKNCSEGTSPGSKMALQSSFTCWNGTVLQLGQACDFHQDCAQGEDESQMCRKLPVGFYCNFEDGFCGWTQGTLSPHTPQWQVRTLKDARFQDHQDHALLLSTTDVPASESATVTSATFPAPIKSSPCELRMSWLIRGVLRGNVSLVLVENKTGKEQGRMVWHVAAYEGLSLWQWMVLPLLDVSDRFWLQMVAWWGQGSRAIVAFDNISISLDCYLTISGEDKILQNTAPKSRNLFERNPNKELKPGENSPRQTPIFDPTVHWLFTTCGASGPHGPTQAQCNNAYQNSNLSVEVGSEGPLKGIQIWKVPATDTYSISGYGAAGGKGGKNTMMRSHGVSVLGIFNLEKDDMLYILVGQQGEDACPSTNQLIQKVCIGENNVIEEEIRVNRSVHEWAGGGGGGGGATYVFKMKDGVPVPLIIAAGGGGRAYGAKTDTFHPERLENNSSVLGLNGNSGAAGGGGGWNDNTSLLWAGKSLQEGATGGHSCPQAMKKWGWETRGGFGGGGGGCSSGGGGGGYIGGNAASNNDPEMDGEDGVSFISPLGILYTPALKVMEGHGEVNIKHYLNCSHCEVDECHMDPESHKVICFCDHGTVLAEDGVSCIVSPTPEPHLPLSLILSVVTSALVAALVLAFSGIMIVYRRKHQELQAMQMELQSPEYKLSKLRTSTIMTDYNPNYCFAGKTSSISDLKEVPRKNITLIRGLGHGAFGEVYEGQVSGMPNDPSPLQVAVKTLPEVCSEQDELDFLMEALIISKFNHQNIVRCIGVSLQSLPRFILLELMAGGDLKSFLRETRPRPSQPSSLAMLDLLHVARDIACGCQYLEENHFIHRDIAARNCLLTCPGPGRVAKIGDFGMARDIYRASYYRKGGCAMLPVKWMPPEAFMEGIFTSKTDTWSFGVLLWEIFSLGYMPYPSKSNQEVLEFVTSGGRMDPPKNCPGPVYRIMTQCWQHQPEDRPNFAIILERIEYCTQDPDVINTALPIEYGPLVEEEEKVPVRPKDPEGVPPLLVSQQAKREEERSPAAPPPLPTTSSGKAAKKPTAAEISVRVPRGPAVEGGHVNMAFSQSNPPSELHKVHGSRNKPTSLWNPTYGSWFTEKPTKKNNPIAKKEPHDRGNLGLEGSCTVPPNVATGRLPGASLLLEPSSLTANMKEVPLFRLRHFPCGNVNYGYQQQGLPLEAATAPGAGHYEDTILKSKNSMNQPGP
In short: as §1

266 human kinases [8] = biological target: T2, 266 human kinases (Homo sapiens, UniProt Q9BZL6); details: PKD2(h); 100 μM
T2 sequence (Q9BZL6 1-878): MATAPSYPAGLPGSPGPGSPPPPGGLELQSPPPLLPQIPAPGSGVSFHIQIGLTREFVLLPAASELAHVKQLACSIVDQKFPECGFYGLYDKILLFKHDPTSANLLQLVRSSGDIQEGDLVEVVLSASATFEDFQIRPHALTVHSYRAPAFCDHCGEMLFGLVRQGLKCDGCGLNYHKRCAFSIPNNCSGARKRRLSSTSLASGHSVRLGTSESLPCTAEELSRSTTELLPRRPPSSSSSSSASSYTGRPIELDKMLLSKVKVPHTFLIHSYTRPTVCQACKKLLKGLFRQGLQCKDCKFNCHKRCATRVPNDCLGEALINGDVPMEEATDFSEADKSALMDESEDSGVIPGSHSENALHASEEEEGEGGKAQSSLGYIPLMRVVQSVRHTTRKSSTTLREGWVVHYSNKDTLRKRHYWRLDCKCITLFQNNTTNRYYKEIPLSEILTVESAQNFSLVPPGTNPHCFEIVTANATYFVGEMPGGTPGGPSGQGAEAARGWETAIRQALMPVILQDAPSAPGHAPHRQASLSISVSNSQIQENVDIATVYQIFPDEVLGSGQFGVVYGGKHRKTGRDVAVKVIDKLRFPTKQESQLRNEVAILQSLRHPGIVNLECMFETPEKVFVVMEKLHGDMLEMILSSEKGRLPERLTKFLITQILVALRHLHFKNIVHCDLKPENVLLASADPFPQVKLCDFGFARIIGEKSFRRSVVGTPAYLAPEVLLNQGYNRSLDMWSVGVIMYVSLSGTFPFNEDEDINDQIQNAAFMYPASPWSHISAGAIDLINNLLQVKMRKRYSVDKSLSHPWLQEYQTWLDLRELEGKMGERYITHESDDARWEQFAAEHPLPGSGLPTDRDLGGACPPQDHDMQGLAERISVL
In short: as §1

266 human kinases [9] = biological target: 266 human kinases (Homo sapiens, UniProt P07949, V804L); details: Ret(V804L)(h); 100 μM
In short: as §1

In the case of “HRRIKAWLKKIKALARQLGVAA (mammal) [MMI-0500]”, the “% activity” value (266 human kinases [1]) is reported as 16%, the “% activity” value (266 human kinases [2]) is reported as 24% and the “% activity” value (266 human kinases [3]) is reported as 150%. For the same sequence, the “% activity” value (266 human kinases [4]) was 118%, the “% activity” value (266 human kinases [5]) was 78% and the “% activity” value (266 human kinases [6]) was 150%. The “% activity” value (266 human kinases [7]) was 12%, the “% activity” value (266 human kinases [8]) was 10% and the “% activity” value (266 human kinases [9]) was 20%.

“YARAAARQARAKALNRQLGVA (mammal) [MMI-0200]” was tested, and the “% activity” value (266 human kinases [1]) was 98%, the “% activity” value (266 human kinases [2]) was 97% and the “% activity” value (266 human kinases [3]) was 86%. The “% activity” value (266 human kinases [4]) was 110%, the “% activity” value (266 human kinases [5]) was 92% and the “% activity” value (266 human kinases [6]) was 139%. For the same sequence, the “% activity” value (266 human kinases [7]) was 95%, the “% activity” value (266 human kinases [8]) was 78% and the “% activity” value (266 human kinases [9]) was 100%.
